In assay [1] the target is (Bs)MifM-stalled RNC (B. subtilis | B. subtilis (endogenous in the B. subtilis 168 extract)) (UniProt Q7WY64). Put plainly: cryo-EM structure; (Bs)SRP pre-incubated with pppGpp, tenfold molar excess over MifM-stalled RNCs, 10 min at room temperature.
For assay [2] the target is unchanged. The assay is described as follows: cryo-EM structure; (Bs)SRP pre-incubated with GMPPNP, tenfold molar excess over MifM-stalled RNCs, 10 min at room temperature.

With “recombinant (Bs)SRP (Ffh and 6S RNA) (from UniProt P37105 1-446) (natural protein)”, the percent of the particles with stably bound SRP (% of the particles) in assay [1] was determined as 38; in assay [2], 24.

Source of the values: publication PMC8881573, “Inhibition of SRP-dependent protein secretion by the bacterial alarmone (p)ppGpp” (Nature Communications, 2022).
